In the RNAGym collection of RNA variant scans (doi:10.1073/pnas.2313332121):
This sample holds only a part of the variants without activity.

B1: TPR 5TU (parent)
chain: GGAUCUUCUCGAUCUAACAAAAAAGACAAAUCUGCCACAAAGCUUGAGAGCAUCUUCGGAUGCAGAGGCGGCAGCCUUCGGUGGCGCGAUAGCGCCAACGUUCUCAACUAUGACACGCAAAACGCGUGCUCCGUUGAAUGGAGUUUAUCAUG

Variants of: B1
Test: polymerase ribozyme fitness, log enrichment relative to wild type (log ratio); higher = more active; in vitro selection for triplet polymerase activity
Method in brief: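 Frozen incubation at −7 °C formed the core of a single, triplicate in vitro selection round applied to PCR-built, transcribed mutant libraries of each subunit of a heterodimeric triplet polymerase ribozyme. Extended constructs were gel-excised, captured with streptavidin beads and amplified by RT-PCR, and input and output libraries were Illumina-sequenced with a filter of ≥10 input reads and ≥1 read per output. Fitness is the logarithm of genotype enrichment relative to wild-type enrichment, with inverse-variance-weighted replicate averaging, and the logarithm is base 2.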

Variant | polymerase ribozyme fitness (log ratio)
U4C C18U U53A A73G U134C | -2.31
C5U G81U C87A A107G U144G | ≤ -4.2
C5A A52C A73U U82C C85U G136U | ≤ -4.2
C5A C75U U90C A91G A150G | ≤ -4.2
C5A C57U G86A A120G G141C | -2.54
U4C A52G G59U U145G | -1.5
C5G G141A | 0.249
C5A A12G C35A G42A C96U | ≤ -4.2
C5A A39U C85U U90G C118U C125U | ≤ -4.2
C5A C57U C95U C103G | -2.24
U4C C10G A17U A22G C36U U78A G92A C118U | ≤ -4.2
U6A A115U G141U | -1.01
U4G A12C U15A G80C U90G G126C G143C | ≤ -4.2
U4A G94U U102C | -3.03
U4G C5U U55G A106C | -2.25
C5A G50U G84A U135A U139A G141C | ≤ -4.2
C5G G94C A122C | -1.03
U4G U6A U13A C14A U33A A39G | ≤ -4.2
C5G U53G G92A C103A U111G A120U | ≤ -4.2
U6A A12G A30C A66U C95A A106G A120G G126C A150U | ≤ -4.2
U4A C8U G46C C93A G100A C118U | ≤ -4.2

Variant | polymerase ribozyme fitness (log ratio)
U4G A21C U56G C85U G124U | -1.58
U4G U6G A20C A24U A30C C95U A119C U148A | ≤ -4.2
U4A U7A G42C G48C A66C G67A C72U U101G | ≤ -4.2
U6C A23U U31G G62A C95U C99G G100U C114U C129U | ≤ -4.2
C5A A21U U77A U82G C96G U104G C105A C118U U139C | ≤ -4.2
C5U C63G A73G G81C C105U A115C A138C | ≤ -4.2
U6C A40C G50U A97U U104A G124C U130A | ≤ -4.2
U4C C5A U15C C36G U53A | -4.12
U6A U33A U55G C57U C79G G92A C131U | ≤ -4.2
C5U C85U U127C U145A | -2.5
C5G G50A G59C C76A G83A C103G C114A | ≤ -4.2
C5A A23C C85U G88A C105U A120G | ≤ -4.2
C5G A23G A52U C87G C99A | ≤ -4.2
C5G G46C G50C C129U U134C C149U | ≤ -4.2
U4A G11U G50A C76U G84U G94C G126U | ≤ -4.2
U4C A20U A64C C85G U101C C118U | ≤ -4.2
U4C U56G G83A C87A | ≤ -4.2
U6C A22U U31G C93A C114G | ≤ -4.2
U6A A12U U15C A137C | -3.12
C5G U7C U13A A16G C51U G92C A98G C114A | -4.13
U4A G94C | -0.637

Variant | polymerase ribozyme fitness (log ratio)
C5G G81A A98G A121U G143C | -2.76
C5A A30C U82G U102C C131U | ≤ -4.2
U4A C8U A29C A41C G58A C75A C79U G83A | ≤ -4.2
U6A U139C | -3.88
U6A A12U G50A C149A | ≤ -4.2
C5G A24C A28C U55G G58A C63U C105G A137G U151G | ≤ -4.2
C5G U6A A28U A30U A39C U45C U53A C57A C96G A115U C129U G140C | -3.81
U6A A23U G83A C105U C108A | ≤ -4.2
C5A G42C G84C C85A G86A G92C | ≤ -4.2
U6A A20G U45A | -3.51
C5G A24C G48A A52C C85U G140U | ≤ -4.2
U4A G84U C85U G117U U145C | -2.29
U6A G25C G141A U146A | -2.69
U4C A115G | -1.57
U4C C36G G50A C51A C75A G83A G112U C116A | ≤ -4.2
U6A A12U A20U A41U A89C A120U | -3.91
C5A A24U A40C A52C | -0.908
C5A A21U A30G A39U G68A C149A | ≤ -4.2
U4A C36G C131A G136A | ≤ -4.2
U6C A26U C35A A73G C75U C93A C116A A138C | ≤ -4.2
U4G C5U A24U A26U G65U G88U G94U A98G G124U G143U | ≤ -4.2

Variant | polymerase ribozyme fitness (log ratio)
C5A A12G G84A G88A A97U C116A | -3.84
C5G A21G C57G C93U A115U | -3.31
C5U C14U A26U C118G A121U | -3.94
C5U A19G U135C G141U | -3.73
C5G C85U G88U C105G A119C | ≤ -4.2
U6A A12G A16U C43U G83A | ≤ -4.2
C5A G74A G81U U139G | -3.53
C5G A17G C93G C95U | -3.96
C5A G86U G92U C116G | -0.979
U4A U139C | -4.08
U4A G84A C99U U109G A120C G152C | -3.96
U4G U61G C76G C93G C103U | ≤ -4.2
C5U C75U C85U | 1.35
C5A U53A C93U C125A G152A | -4.17
C5A A29C G50U C51U G88A U90C | ≤ -4.2
C5U C14G G59C C63U C85U U101G | -3.47
C5G U77C C87G U134G | ≤ -4.2
U4G C85U U134G U145G | -2.85
C5G U135C | -2.4
C5A C93A | -1.25
U4G G140C | ≤ -4.2
